The text below walks through data of patent publication US20070105924A1, “Vigabatrin bioisoteres and related methods of use” (priority 2005, published 2007).

Some test systems named below: NCCCC(=O)O; NCCCCc1nnn[nH]1; NCCCc1nnn[nH]1; NCCc1nnn[nH]1.
Common to all, as to assay: purified protein, by the assay type
Common to all, as to conditions: other: substrate of GABA-AT, 1 h incubation, 25° C., pH 8.5

Experimental for NCCCCc1nnn[nH]1: (§1) After incubation (48 h for the preliminary test, 1 h for determination of kinetic constants), the mixture was quenched with trichloroacetic acid. The resulting [^14C]glutamate was isolated by cation-exchange chromatography, and the DPM (disintegration per minute) value was measured. Controls consisted of the entire incubation mixture with substrates omitted. The substrate kinetic constants kcat and Km were determined by the method of Hanes and Woolf, as referenced above.
Experimental for NCCCc1nnn[nH]1: as §1
Experimental for NCCc1nnn[nH]1: as §1

The Km is the concentration of substrate that gives half-maximal velocity. A word on the kcat: it is the number of substrate molecules converted per active site and unit of time at saturation. Usually kcat/Km stands for the second-order rate constant that governs catalysis at low substrate concentration. Consider GABA-AT (Sus scrofa), for which the Michaelis constant (Km) was determined as 2400 µM in the data set with NCCCC(=O)O, 8000 µM in the data set with NCCCCc1nnn[nH]1, 2400 µM in the data set with NCCCc1nnn[nH]1 and 2300 µM in the data set with NCCc1nnn[nH]1. The turnover number (kcat) in the data set with NCCCC(=O)O was 0.817 s⁻¹; in the data set with NCCCCc1nnn[nH]1, 0.693 s⁻¹; in the data set on NCCCc1nnn[nH]1, 0.477 s⁻¹; in the data set with NCCc1nnn[nH]1, 0.265 s⁻¹. For the same substance, the specificity constant (kcat/Km) with NCCCC(=O)O was 340 M⁻¹ s⁻¹; in the data set on NCCCCc1nnn[nH]1, 86.7 M⁻¹ s⁻¹; in the data set with NCCCc1nnn[nH]1, 195 M⁻¹ s⁻¹; in the data set on NCCc1nnn[nH]1, 115 M⁻¹ s⁻¹.
